Results: patent EP2433948A1, “Use of a new class of nucleotide sugar as antibiotic or cytostatic agent” (Max-Planck-Gesellschaft zur Förderung der Wissenschaften …, priority 2010, dated 2012)

Substrate: CC(=O)N[C@H]1[C@@H](OP(=O)(O)OP(=O)(O)OC[C@H]2O[C@@H](n3ccc(=O)[nH]c3=O)[C@H](O)[C@@H]2O)O[C@H](CO)[C@@H](O)[C@@H]1O
Experiment: MurA activity/inhibition assay (phosphate release coupled to PNPase cleavage of fluorescent 7-methylguanosine)
Format: biochemical, E. coli
Details: other: 0.5 µM MurA, 1 mM phosphoenolpyruvate; best fit parameter of global fit; same as reported in literature; pH 7.5
Excerpt: • (a) MurA performs the first step of UDP-muramic acid biosynthesis. After sequential binding of UNAG and phosphoenolpyruvate, a tetrahedral intermediate is formed that yields enolpyruvyl-UNAG after cleavage of inorganic phosphate. UNAG-3P most likely mimics this tetrahedral intermediate and thereby inhibits MurA catalysis by a competitive binding mechanism. (b) Determination of the Ki of UNAG-3P for MurA. Enolpyruvyl-UNAG formation catalyzed by MurA from E. coli in presence of PEP and UNAG-3P and varying UNAG concentrations under steady state conditions. MurA enzyme kinetics were followed by coupling the reaction to phosphate dependent cleavage of fluorescent 7-methylguanosine by nucleoside phosphorylase resulting in a strong decrease of the fluorescence at 400 nm (λexc = 300 nm). The UNAG-3P concentrations for each saturation curve were 0 µM (●), 15 µM (□) and 30 µM (Δ). A Lineweaver-Burk plot is shown as inset.
The enolpyruvyl activity of E. coli MurA was monitored by coupling phosphate release to cleavage of fluorescent 7-methylguanosine (Sigma) by bacterial purine-nucleoside phosphorylase (PNPase) (Sigma). […] The reactions were monitored by the decrease in fluorescence at 400 nm with excitation set to 300 nm in a FluoroMax-3 spectrofluorometer (HORIBA Jobin Yvon) with excitation and emission bandwidths of 5 nm. […]

B1: E. coli MurA (Escherichia coli K-12) (protein)
chain: MDKFRVQGPTKLQGEVTISGAKNAALPILFAALLAEEPVEIQNVPKLKDVDTSMKLLSQLGAKVERNGSVHIDARDVNVFCAPYDLVKTMRASIWALGPLVARFGQGQVSLPGGCTIGARPVDLHISGLEQLGATIKLEEGYVKASVDGRLKGAHIVMDKVSVGATVTIMCAATLAEGTTIIENAAREPEIVDTANFLITLGAKISGQGTDRIVIEGVERLGGGVYRVLPDRIETGTFLVAAAISRGKIICRNAQPDTLDAVLAKLRDAGADIEVGEDWISLDMHGKRPKAVNVRTAPHPAFPTDMQAQFTLLNLVAEGTGFITETVFENRFMHVPELSRMGAHAEIESNTVICHGVEKLSGAQVMATDLRASASLVLAGCIAEGTTVVDRIYHIDRGYERIEDKLRALGANIERVKGE
Km: 15 µM
